Here are results for one molecule from paper PMC6727763 (Molecular Biology of the Cell, 2019).

The assay deals with T1, αE-catenin construct containing the M123 domain (UniProt P26231 1-906).
T1 sequence (looked up): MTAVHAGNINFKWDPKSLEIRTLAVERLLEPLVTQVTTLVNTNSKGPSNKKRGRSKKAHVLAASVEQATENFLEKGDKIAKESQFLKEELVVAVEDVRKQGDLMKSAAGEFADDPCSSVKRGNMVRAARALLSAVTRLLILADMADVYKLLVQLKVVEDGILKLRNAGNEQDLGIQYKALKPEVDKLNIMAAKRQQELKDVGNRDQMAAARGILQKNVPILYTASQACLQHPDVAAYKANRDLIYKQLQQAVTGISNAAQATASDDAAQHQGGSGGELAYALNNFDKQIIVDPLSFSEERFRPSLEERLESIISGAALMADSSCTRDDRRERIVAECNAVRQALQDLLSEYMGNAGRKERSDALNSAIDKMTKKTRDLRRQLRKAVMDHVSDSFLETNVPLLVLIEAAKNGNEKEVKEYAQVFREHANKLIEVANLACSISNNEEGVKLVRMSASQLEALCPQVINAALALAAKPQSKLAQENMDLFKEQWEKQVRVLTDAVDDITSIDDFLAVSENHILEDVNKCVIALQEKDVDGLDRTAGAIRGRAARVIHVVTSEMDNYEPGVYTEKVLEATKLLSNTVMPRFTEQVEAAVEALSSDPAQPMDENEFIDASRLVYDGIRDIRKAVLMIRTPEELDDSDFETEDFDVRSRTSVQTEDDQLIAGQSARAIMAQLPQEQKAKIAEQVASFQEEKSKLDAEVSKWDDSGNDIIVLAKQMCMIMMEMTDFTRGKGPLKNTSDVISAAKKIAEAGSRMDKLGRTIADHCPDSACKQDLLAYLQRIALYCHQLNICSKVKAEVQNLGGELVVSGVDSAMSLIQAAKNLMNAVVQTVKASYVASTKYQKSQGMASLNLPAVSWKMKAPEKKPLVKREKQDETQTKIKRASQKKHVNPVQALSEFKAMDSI
In words: magnetic tweezers force-jumping assay.

B1: vinculin head domain 1 (VD1) (domain or fragment)
chain: MPVFHTRTIESILEPVAQQISHLVIMHEEGEVDGKAIPDLTAPVSAVQAAVSNLVRVGKETVQTTEDQILKRDMPPAFIKVENACTKLVRAAQMLQADPYSVPARDYLIDGSRGILSGTSDLLLTFDEAEVRKIIRVCKGILEYLTVAEVVETMEDLVTYTKNLGPGMTKMAKMIDERQQELTHQEHRVMLVNSMNTVKELLPVLISAMKIFVTTKNTKSQGIEEALKNRNFTVEKMSAEINEIIRVLQLTSWDEDAW
As for B1, the Kd is 2 nM, the koff stood at 0.008 s⁻¹ and the association rate constant (kon) worked out at 4.8e+06 M⁻¹ s⁻¹.
